Experimental data published in the nanobody polyreactivity screen of Harvey et al. (2022).

Assay: yeast display, Sf9 membrane polyspecificity reagent, FACS + sequencing; frameworks hold sequencing errors
Procedure, shortened: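 Synthetic nanobody libraries on Saccharomyces cerevisiae BJ5465 were galactose-induced for 36–48 hours, stained 1 hour at 4 °C with 10% biotinylated, detergent-solubilized Sf9 membrane reagent and enriched on streptavidin microbeads. FACS then separated cells into low and high (top ~1%) gates by anti-HA (expression) and streptavidin (reagent binding) fluorescence. Genes were colony-PCR amplified, MiSeq 2 × 250 sequenced and CDR-length filtered. A clone's polyreactivity label is that of its gate of origin.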

Sequence | polyreactivity (PSR sort gate)
QVHLLESWGGLFHAGGSPRLSCAASGRTFGRYAMGWYRQSPATERELVAAITFRGGHSYYADSVKGRFTISRDNAKNTVYFQMNSLKPEDTAVYYCAKRGGYWHKFDYWGQGTQVTVSS | high polyreactivity
QVQLVESGGGLVQAGGSLRLSCAASGFIFPEYAMGWYRQAPGKERELVAAINWSGGNTYYADSVKGRFTISRDNAKNTVYLQMNSLKPEDTAVYYCNVDDWVTDDDYWGQGTQVTVSS | low polyreactivity
QVQLVESGGGLVQAGGSLRLSCAASGSNFKTYAMGLYRQAPGKERELVAAISSGGSTYYADSVKGRFTISRDNAKITVYLQMNSLKPEDTAVYYCAADPWGAFVSFASYYYWGQATQVTVSS | low polyreactivity
QVQLVESGGGIVQAGGSLRLSSAASGINFRYYAMGSSRPAPGKDRELVAVKSRDGTTYYADSVKGRFTISRDNAKNTVYLPMNSLKAADTAVYYCAKKAWVIYNRKFSSGYDYWGQGTQVNVSS | low polyreactivity
QVQLVESGGGLVQAGGSLRLSCAASGSILYVYAMGWYRQAPGKERELVAAISFSGGSTYYADSVKGRFTISRDNAKNTVYLQMNSLKPEDTAVYYCAADVSYDIYVEYDYWGQGTQVTVSS | low polyreactivity
QVQLVESGGGLVQAGGSLRLSCAASGSIFLYNAMGWYRQAPGKERELVADITTTGGSTYYADSVKGRFTISRDNAKNTVYLQMNSLKPEDTAVYYCNVDYWGQGTQVTVSS | low polyreactivity
QVQLVESGGRLVQAGGSLRLSGAASGRTFAKYAMGWYRQAPGKERELVAAINSSGDSTYYADSVKGRFTISRDNAKNTVYLQMNSLKPEDTAVYYCATRYRSSQWYSPYKYDYWGQGTQVTVSS | low polyreactivity
QVQLVESGGGLVQAGGSLRLSCAASGSIFGSYAMGWYRQAPGKERELVAGITRRSGSTYYADSVKGRFTISRDNAKNTVYLQMNSLKPEDTAVYYCNAQAYSRRWDARGDYWGQGTQVTVSS | high polyreactivity
QVQLVESGGGLVQAGGSLRLSCAASGIIFASNGMGWYRQAPGKERELLAAISSGGSTNYADSVKGRFTISRDNAKNTVYLQMNSLKPEDTAVYYCSTSGPQYYSRNFDYWGLGTQVTVSS | low polyreactivity
QVQLVESGGGLVQAGGSLRLICAASGSIFIGNTMGWYRQAPGKERELVATIRRSGSRTYYADSVKGRFTISRDNAKNTVYLQMNSLKPEDPAVYYCNAEGVGRYSPVSHTFDYWGQGTQVTLSS | low polyreactivity
QVQLVDSGGGLVQAGGSLRLSCAASGGTFDWYTMGWYRQAPGKERELVADITSGGSTYYADSVKGRFTISRDNAKNTVYLQMNSLKPEDTAVCYCATTVYSTSGYPYDYWGQGTQVTVSS | high polyreactivity
QVQLVESGVGLVQAGGTLRLSGAASGLIFEYYAMGWYRQPPGKETELVAAITTSGGSTYYADSVKGRFTISRDIAKNTVYLQMNSLKPEDTAVYDCAAVGVRSRYYGYDYWGQGTLVTVSS | high polyreactivity
QVQLVESGGGLVQAGGSLRLSCAASGSTFASNPMGGYRQAPGKERELVAAISGSGGSTYYADSVKGRFTISRDNAKNTVYLQMNSMTPEDTAVYYCNAAVAYYSYSYYTKVGVDYWGQGSQVTVSS | high polyreactivity
QVQLVESGGGLVQAGGSLRLSCAASGSTITDYDMGWYRQAPGKERELVAAITSGGSTNYADSVKGRFTISRDNAKNTVYLQMNSLKPEDTAVYYCAAADADRKYDYWGQGTQVTVSS | low polyreactivity
QVQHVESGGGIVQAGGSLRLSCAASGSTFWRNAMGWYRQAPGKEREFVASISWSGGGTYYADSVKGRFTISRDNEKNTVYLQMNSLKPEDTAVYYCAATPDWSYWYGNGDYDYWGQVTQVTVSS | low polyreactivity
QVQLQETGGGLVQVGGSQRLSCAASGNIFYNYAMGWYRHAQGKEREFDATINHGTSINDADSVKGRFTISRDNAKNTVYLQMNSLTPEDTAVYYCAADLSWTDNLFYWGQGTQETVSS | low polyreactivity
QVQLVESGGGLVQAGGSLRLSCAASGSIFYPYVMGWYIQAPGKESELVASISRRGGRTYYADSVKGRFTISRDYAKNTVYLEMNSLKPEDTAVYYCAKRTYDSFYGYYYWGQVTQVTVSS | high polyreactivity
QVQLVESGGGLVQAGGSLRLSCAASGSIFGKNAMGWYRQAPGKERELVAAITWSGGSTYYADSVKGRFTISRDNAKNTVYLQMNSLKPEDTAVYYCNAVRVRVTSHRIRQLDYGYWGQGTQVTVSS | low polyreactivity
QVQLVESGVGLVQAGGSLRLSCAASGRTFDYNAMGWYIQAPGKERELVAAITSSGGSTYYADSVKGRFTISRDNAKNTVYLQMNSLKPEDTAVYYCDTDGQSPYYIYYWGQGTQVTVSS | low polyreactivity
QVQLEESGGGLVQAGGSLRLSCAGSGRNFGVNTMRWYRQATGKERDLVAAISFSGVSTYYADSVKGRFTISRDNAKNTVYLQMNSLKPEDTPVYYCAAVPYRQYPCGGYWGQGTQVTVSS | low polyreactivity
QVQLVESGGGLVQAGGSLRLSCAASGSTFAKYAMGWYRQAPGKERELVATITDGGSTYYADSVKGRFTISRDNAKNTVYLQMNRMKPEDTAVYYCNAVILYWLYTSYVAGWPYDYWGQGTQVTVSS | high polyreactivity
QVQLVESGGGLVQAGGRLRLSCAASGSTFPYYAMGWYRQAPGKERELVAVITRGGSTYYADSVKGRFTISRDNAQNTVYLQMNSLKPEDTAVYYCAARYTPGFCYWGQGTQVTVSS | high polyreactivity

Sequence | polyreactivity (PSR sort gate)
QVQLVDSGGGIVQAGGSLRLSCAASGSTFGRKVMGWYRQAPGKERELVAAISFRGGSTYYADSVKGRFTISRDNAKNTVYLQMNSLKPEDTAVYYCARDYPTDAYDYWGQGTQVTVSS | low polyreactivity
QVQLVESGGGLVQAGGSLRLSCAASGSIFLAYAMGWYRQAPGKERELVAAITAGTGSTYYADSVKGRFTISRDNAKNTVYLQMNSLKPEDTAVYYCAKAVSLFRGPFSSFDYWGQGTQVTVSS | low polyreactivity
QVQLVESGGGLVQAGGSLRLSCAASGSIIRINAMGWYRQAPGKERELVAAISTRSGRTYYADSVKGRFTISRDNAKNTVYLQLNSLKPEDTAFYYCARYRTQASGYGGYHYWGQGTQVTVSS | high polyreactivity
QVQLVESGGGLVQAGGSLRLSCAASGSTFRQNAMGWYRQAPGKERELVAAISSIGDSTNYADSVKGRFTISRDNAKNTVYLQMNSLKPEDTAVYYCAARTVQQRRRLYYWGQGTQVTVSS | high polyreactivity
QVQLVESGGGLVQAGGSLRLSCAASGRIFAFYVMGWYRQAPGKERELVAAITSGGNTNYADSVKGRFTISRDNAKNTVYLQMNSLKPEDTAVYYCARAWLGQYTLGTYYYWGQGTQVTVSS | low polyreactivity
QVQLVESGGVLVQAGGSLRLSCAASGSTFVYNAMGWYRQAPGKERELVARISWSVTDTYYADSVKGRFTISRDNAKNTVYLQMNSLKPEDTAVYYCNTDVTYSHLVFGYDYWGQGTQVTVSS | low polyreactivity
QVQLVESGGGLVQAGGSLRLSCAASGSIFFLYAMGWYRQAPGKERELVAAISRDGRTNYADSVKGRFTISRDNAKNTVYLQMNSLKPEDTAVYYCAKDGNHPGAVVYGYWGQRTQVTVSS | low polyreactivity
QVQLVESGGGLVQAGGSLRLSCAASGLTFQLYGMGWYRQAPGKERELVAAISGSGGRTYYADSVKGRFTISRDNAKNTVYLQMNSLKPEDTAVYYCAARPGSGRSYTSDYWGQGTQVNVSS | high polyreactivity
QVQLVESGGGLVQAGGSLRLSCAASGITFYRYAMGWYRQAPGKERALVAAISWRSGSTNYADSVKGRFTISRDNAKNTVYLQMNSLKPADTAVYYCAARVADYPLFGGSSYNRMEYWGQGTQVTVTS | low polyreactivity
KVHLVDSGGRLVQAGGSLRLSCSASGSIFYVYAMGWYRQAPGTERELVATISSSAGSTYYAYSVKGRFTISRDNAKNTVNLQMYSLNPVDTAVYYCYADSFLSWVYRYVYYVSGLWGQGTQVTVSS | low polyreactivity
QVQLVESGGGLVQAGGSLRLSCAASGITYRGYAMGWYRQAPGKERELVAAISSGGSTSYADSLKGRFTISRDNAKNTVYLQMNSLKPEDTAVYYCAKDDERKQGQYPPYDSWGQGTQVTVSS | low polyreactivity
QVQLVESGGGLVQAGGSLRLSCAASGSTFYPNAMGWYRQAPGKERELVAVITRSGGSTYYADSVKGRFTISRDNAKNTVYLQMNSLKPEDTAVYYCNAAYRTAYYGPRYDYWGQGTQVTVSS | high polyreactivity
QVQLVESGGGLVQAGGSLRLSCAASGRTFNFYPMGWYRPAPGKERELVAAITVRGGSTYYSDSVKGRFTISRYNAKNTVYLQMNSLKPEDTAVYYCAADPYPYYGAYDYWGQGTQVTVSS | high polyreactivity
QVQLVESGGGLVQAGGSLRLTCAASGGISLYYVMGWYRQAPGKERELVADISGDDSTNYADSVKGRFTISRDNAKNTVYLQMNSLKPEDTAVYYCAAVPGLFYLPYDYWGQGTQVTVSS | low polyreactivity
QVQLVESGGGLVQAGRSLRLSCAASGSTFSHYAMGWYRQAPGKERELFATITGTGVRTYYADSVKGRFTISRDNAKNTVYLQMNSLKPEATAVYFCAVPPSIRGAQAQPWMDYWGQGTQVTVSS | low polyreactivity
QVQLVESGGGLVQAGGSLRLSCAASGFTIYLYTMGWYRQAPGKERELVATISWSGGSTYYADSVKGRFTISRDNAKNNVYLHMNSLKPEDTAVYYCAKAYNGRYTWRYDYWGQGTQVTVSS | high polyreactivity
QVQLVESGGGLVQAGGSLRLSCAASGFIFGSNAMGWYRQAPGKERELVAAISRSGGSTYYADSVKGRFTISRDNAKNTVYLQMNSLKPEDTAVYYCASYLYKSRYLPEYDYWGQGTQVTVSS | high polyreactivity
QVQLVESGGGLVQAGGSLRLSCAASGRIFVSYDMGWYRQAPGKEREFVAAIRRSGSSTYYADSVKGRFTISRDNAKNTVYLQMNSLKPEDTAVYYCAAYQRSRTLRRYDYWGQGTQVTVSS | high polyreactivity
QDQLVESAGGLVQAGGSLRLSCAASGNTFSTNPLGSYRQAAGKERELVATISRNGGSTSYAVSVKGRFTISRDNAKNSDYLKMYSLKAEDTAVYYCAARSVRPGPFSDDYWGQGTQVTVSS | low polyreactivity
QVQLVESGGGLVQAGGSLRLSCAASGRTFVGNAMGWYRQAPGKERELVADITWSGDITYYADSVKGRFTISRDNAKNTVYLQKNSLKPEDTAVYYCAADYHRRRTDYDYWGQGTQVTVSS | low polyreactivity
QVQLVESGGGLVQAGGSLRLSCAAYGSTFDRNVMGWYRQAPGKERELVAAISRVSSTNYADSVKGRFTISRDNAKNTVYLQMNSLKPEDTAVYYCAADRPGSIMNYWGQGTQVTVSS | low polyreactivity
